Experiments:
Assay in all cases: BLI; Octet RED96; His-tagged or Avi-tagged minibinder immobilised on Ni-NTA or streptavidin tips, dipped into titrations of integrin; association 900 s, dissociation 1200 s
av6_3 G64R = target: av6_3 G64R
av6_3 E13TG64R = target: av6_3 E13TG64R
av6_3 M15R = target: av6_3 M15R
av6_3 E13TM15RA39KG64R = target: av6_3 E13TM15RA39KG64R
av6_3 A39K = target: av6_3 A39K
av6_3 E13TM15RA39K = target: av6_3 E13TM15RA39K
av6_3 M15RG64R = target: av6_3 M15RG64R
Chain of av6_3 M15RG64R (main, as listed by the source): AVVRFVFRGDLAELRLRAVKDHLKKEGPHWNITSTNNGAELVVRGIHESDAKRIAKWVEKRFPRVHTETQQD

Chain of av6_3 G64R (main, as listed by the source G64R): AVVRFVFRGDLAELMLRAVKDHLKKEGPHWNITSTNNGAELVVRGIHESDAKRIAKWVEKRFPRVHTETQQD
Chain of av6_3 M15R (main, as listed by the source M15R): as the sequence (main, as listed by the source G64R) above, with M15R, R64G counted along it
Chain of av6_3 A39K (main, as listed by the source A39K): as the sequence (main, as listed by the source G64R) above, with A39K, R64G counted along it
Chain of av6_3 E13TM15RA39K (main, as listed by the source): as the sequence (main, as listed by the source G64R) above, with E13T, M15R, A39K, R64G counted along it
Chain of av6_3 E13TM15RA39KG64R (main, as listed by the source): as the sequence (main, as listed by the source G64R) above, with E13T, M15R, A39K counted along it
Chain of av6_3 E13TG64R (main, as listed by the source): as the sequence (main, as listed by the source G64R) above, with E13T counted along it

- Kd (av6_3 G64R): 0.95 nM
- koff (av6_3 G64R): 0.000134 s⁻¹
- kon (av6_3 G64R): 141000 M⁻¹ s⁻¹
- Kd (av6_3 E13TG64R): 0.79 nM
- koff (av6_3 E13TG64R): 8.87e-05 s⁻¹
- kon (av6_3 E13TG64R): 112000 M⁻¹ s⁻¹
- Kd (av6_3 M15R): 0.38 nM
- koff (av6_3 M15R): 6.65e-05 s⁻¹
- kon (av6_3 M15R): 175000 M⁻¹ s⁻¹
- Kd (av6_3 E13TM15RA39KG64R): 0.79 nM
- koff (av6_3 E13TM15RA39KG64R): 8.31e-05 s⁻¹
- kon (av6_3 E13TM15RA39KG64R): 104000 M⁻¹ s⁻¹
- Kd (av6_3 A39K): 0.64 nM
- koff (av6_3 A39K): 8.16e-05 s⁻¹
- kon (av6_3 A39K): 127000 M⁻¹ s⁻¹
- Kd (av6_3 E13TM15RA39K): 1.08 nM
- koff (av6_3 E13TM15RA39K): 9.1e-05 s⁻¹
- kon (av6_3 E13TM15RA39K): 84300 M⁻¹ s⁻¹
- Kd (av6_3 M15RG64R): 0.74 nM
- koff (av6_3 M15RG64R): 7.71e-05 s⁻¹
- kon (av6_3 M15RG64R): 104000 M⁻¹ s⁻¹
Substance: human integrin αvβ6 (soluble, BLI analyte) (from UniProt P06756 31-1048; P18564 22-709) (receptor)
